Measured values published in paper PMC10716038, “Talin and kindlin use integrin tail allostery and direct binding to activate integrins” (Nature Structural & Molecular Biology, 2023).
Values joined by “and” are separate entries in the source; they are usually repeats but may differ in a detail not shown here. Equal values may be shown once. No end group written: not given here.

Experiments:
Details in all cases: both partners purified
[1] = molecular target: T1, talin-1 head domain (THD1) (UniProt P26039 1-405); experiment: MST; apparent; THD1 titrated to 488–β1-CT or 488–β3-CT in the presence of 500–1,100 µM KIND2-F0; MST buffer
T1 construct: talin-1 (TLN1) head domain (THD), residues 1-405; murine TLN1 cDNA is named only for the cell lines; also called WT; source: E. coli (DE3) Rosetta 2, purified (IMAC, SEC); not shown: His10-SUMO, N-terminal, cleaved

[2] = molecular target: T1, talin-1 head domain (THD1); experiment: MST; apparent; THD1 titrated to 488–β1-CT or 488–β3-CT in the presence of 300–400 µM β-CT-binding-impaired KIND2 Q614A,W615A (QW/AA); MST buffer
THD1 K403E = molecular target: T2, THD1 K403E (UniProt P26039 1-405, K403E); experiment: MST; apparent; THD1 or THD1 mutants titrated to 488–β3-CT in the presence of 30-40 µM KIND2; MST buffer
T2 construct: talin-1 (TLN1) head domain, residues 1-405, K403E; source: E. coli (DE3) Rosetta 2, purified (IMAC, SEC); not shown: His10-SUMO, N-terminal, cleaved

THD1 I399A = molecular target: T3, THD1 I399A (UniProt P26039 1-405, I399A); experiment: as above
T3 construct: talin-1 (TLN1) head domain, residues 1-405, I399A; source: E. coli (DE3) Rosetta 2, purified (IMAC, SEC); not shown: His10-SUMO, N-terminal, cleaved

THD1 Y395A = molecular target: T4, THD1 Y395A (UniProt P26039 1-405, Y395A); experiment: as above
T4 construct: talin-1 (TLN1) head domain, residues 1-405, Y395A; source: E. coli (DE3) Rosetta 2, purified (IMAC, SEC); not shown: His10-SUMO, N-terminal, cleaved

THD1 K402A = molecular target: T5, THD1 K402A (UniProt P26039 1-405, K402A); experiment: as above
T5 construct: talin-1 (TLN1) head domain, residues 1-405, K402A; source: E. coli (DE3) Rosetta 2, purified (IMAC, SEC); not shown: His10-SUMO, N-terminal, cleaved

THD1 KKAA = molecular target: T6, THD1 KKAA (UniProt P26039 1-405, KKAA (KK402/403)); experiment: as above
T6 construct: the sheet prints only 'KKAA'; source: E. coli (DE3) Rosetta 2, purified (IMAC, SEC); not shown: His10-SUMO, N-terminal, cleaved

THD1 L400A = molecular target: T7, THD1 L400A (UniProt P26039 1-405, L400A); experiment: as above
T7 construct: talin-1 (TLN1) head domain, residues 1-405, L400A; source: E. coli (DE3) Rosetta 2, purified (IMAC, SEC); not shown: His10-SUMO, N-terminal, cleaved

[3] = molecular target: T1, talin-1 head domain (THD1); experiment: as above
THD1 K403A = molecular target: T8, THD1 K403A (UniProt P26039 1-405, K403A); experiment: as above
T8 construct: talin-1 (TLN1) head domain, residues 1-405, K403A; source: E. coli (DE3) Rosetta 2, purified (IMAC, SEC); not shown: His10-SUMO, N-terminal, cleaved

THD1 K401A = molecular target: T9, THD1 K401A (UniProt P26039 1-405, K401A); experiment: as above
T9 construct: talin-1 (TLN1) head domain, residues 1-405, K401A; source: E. coli (DE3) Rosetta 2, purified (IMAC, SEC); not shown: His10-SUMO, N-terminal, cleaved

THD1 Δ401-405 = molecular target: T10, THD1 Δ401-405 (UniProt P26039 1-405, Δ401-405); experiment: as above
T10 construct: source: E. coli (DE3) Rosetta 2, purified (IMAC, SEC); not shown: His10-SUMO, N-terminal, cleaved

[4] = molecular target: T1, talin-1 head domain (THD1); experiment: MST; unlabelled protein titrated to 50-200 nM ATTO 488-labelled β-CT peptide, no third protein; 20 mM Tris pH 7.5, 200 mM NaCl, 1 mM TCEP, 0.05% Tween-20; Kd of individual titrations (in S0002 mean and sd, n = 2)
[5] = molecular target: T11, talin-2 head domain (THD2) (UniProt Q71LX4 1-408); experiment: as above
T11 construct: talin-2 (TLN2) head domain (THD), residues 1-408; source: E. coli (DE3) Rosetta 2, purified (IMAC, SEC); not shown: His10-SUMO, N-terminal, cleaved
T11 sequence (Q71LX4 1-408): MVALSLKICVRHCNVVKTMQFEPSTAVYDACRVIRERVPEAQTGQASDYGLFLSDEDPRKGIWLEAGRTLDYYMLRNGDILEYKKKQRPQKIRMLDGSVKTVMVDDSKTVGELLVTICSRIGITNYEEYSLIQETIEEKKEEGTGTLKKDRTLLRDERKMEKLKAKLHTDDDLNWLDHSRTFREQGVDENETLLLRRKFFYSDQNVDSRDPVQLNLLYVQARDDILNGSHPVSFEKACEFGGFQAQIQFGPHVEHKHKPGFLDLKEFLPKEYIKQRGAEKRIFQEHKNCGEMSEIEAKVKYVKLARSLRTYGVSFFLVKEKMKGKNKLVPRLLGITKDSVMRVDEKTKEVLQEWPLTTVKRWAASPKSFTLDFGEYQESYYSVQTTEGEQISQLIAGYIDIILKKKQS

T1 sequence (P26039 1-405): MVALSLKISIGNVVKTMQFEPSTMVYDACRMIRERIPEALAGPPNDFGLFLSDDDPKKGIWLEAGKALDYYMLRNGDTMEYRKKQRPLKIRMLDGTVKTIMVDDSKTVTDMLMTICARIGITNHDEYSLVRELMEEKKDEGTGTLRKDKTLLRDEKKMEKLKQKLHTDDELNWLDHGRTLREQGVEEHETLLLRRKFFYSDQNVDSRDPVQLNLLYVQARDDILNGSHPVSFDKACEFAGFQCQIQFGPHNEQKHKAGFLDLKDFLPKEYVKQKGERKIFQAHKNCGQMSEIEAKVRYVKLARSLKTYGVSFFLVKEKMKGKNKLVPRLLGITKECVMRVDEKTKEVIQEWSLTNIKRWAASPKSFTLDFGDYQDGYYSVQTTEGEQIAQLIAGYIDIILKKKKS
T7 sequence (P26039 1-405 L400A): as the sequence (P26039 1-405) above, with L400A counted along it
T9 sequence (P26039 1-405 K401A): as the sequence (P26039 1-405) above, with K401A counted along it
T5 sequence (P26039 1-405 K402A): as the sequence (P26039 1-405) above, with K402A counted along it
T2 sequence (P26039 1-405 K403E): as the sequence (P26039 1-405) above, with K403E counted along it
T4 sequence (P26039 1-405 Y395A): as the sequence (P26039 1-405) above, with Y395A counted along it
T3 sequence (P26039 1-405 I399A): as the sequence (P26039 1-405) above, with I399A counted along it
T6 sequence (P26039 other isoform, or with tags, fused parts or gaps KKAA (KK402/403) | KKAA (KK402/403)): as the sequence (P26039 1-405) above, with K402A, K403A counted along it
T8 sequence (P26039 1-405 K403A): as the sequence (P26039 1-405) above, with K403A counted along it
T10 sequence (P26039 1-400, stated change not applied): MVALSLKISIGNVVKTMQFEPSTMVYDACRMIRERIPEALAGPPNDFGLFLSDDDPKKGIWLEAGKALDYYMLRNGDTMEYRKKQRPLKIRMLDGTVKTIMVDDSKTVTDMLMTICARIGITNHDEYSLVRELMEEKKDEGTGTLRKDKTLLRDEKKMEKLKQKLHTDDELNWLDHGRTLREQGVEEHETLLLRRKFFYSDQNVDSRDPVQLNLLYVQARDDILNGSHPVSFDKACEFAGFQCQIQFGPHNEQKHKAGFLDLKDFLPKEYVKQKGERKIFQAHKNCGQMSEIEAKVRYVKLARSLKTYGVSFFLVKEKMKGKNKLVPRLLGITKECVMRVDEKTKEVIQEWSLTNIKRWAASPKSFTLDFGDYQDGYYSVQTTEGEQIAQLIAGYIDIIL

B1: ATTO 488-labeled integrin β3 cytoplasmic tail (488–β3-CT) (peptide, UniProt O54890 741-787, looked up)
peptide: {ATTO 488}-KLLITIHDRKEFAKFEEERARAKWDTANNPLYKEATSTFTNITYRGT
notes: integrin β3 cytoplasmic tail (β3-CT); source: synthetic peptide (MPIB Core Facility)
In the case of B1, the Kd [1] is reported as 105 µM and 87.6 µM, the Kd [2] is reported as 183 µM and 137 µM and 88 µM and the Kd (THD1 K403E) is reported as 116 µM. It also gave a Kd (THD1 I399A) of 91 µM, a Kd (THD1 Y395A) of 42 µM and a Kd (THD1 K402A) of 117 µM. For the same binder, the Kd (THD1 KKAA) was 88.3 µM, the Kd (THD1 L400A) was 180 µM and the Kd [3] was 95 µM. The Kd (THD1 K403A) was 114 µM, the Kd (THD1 K401A) was 148 µM and the Kd (THD1 Δ401-405) was 560 µM. The Kd [4] was 127 µM and 115 µM and 93.9 µM and 85.5 µM and the Kd [5] was 31.7 µM and 32.1 µM and 49.1 µM.
